According to publication PMC6742479 (Molecular cell, 2015):
One block for each binder: values may come before it.

Molecular target: T1, GST-scKap104 (S. cerevisiae, UniProt P38217 1-918)
T1 sequence (looked up): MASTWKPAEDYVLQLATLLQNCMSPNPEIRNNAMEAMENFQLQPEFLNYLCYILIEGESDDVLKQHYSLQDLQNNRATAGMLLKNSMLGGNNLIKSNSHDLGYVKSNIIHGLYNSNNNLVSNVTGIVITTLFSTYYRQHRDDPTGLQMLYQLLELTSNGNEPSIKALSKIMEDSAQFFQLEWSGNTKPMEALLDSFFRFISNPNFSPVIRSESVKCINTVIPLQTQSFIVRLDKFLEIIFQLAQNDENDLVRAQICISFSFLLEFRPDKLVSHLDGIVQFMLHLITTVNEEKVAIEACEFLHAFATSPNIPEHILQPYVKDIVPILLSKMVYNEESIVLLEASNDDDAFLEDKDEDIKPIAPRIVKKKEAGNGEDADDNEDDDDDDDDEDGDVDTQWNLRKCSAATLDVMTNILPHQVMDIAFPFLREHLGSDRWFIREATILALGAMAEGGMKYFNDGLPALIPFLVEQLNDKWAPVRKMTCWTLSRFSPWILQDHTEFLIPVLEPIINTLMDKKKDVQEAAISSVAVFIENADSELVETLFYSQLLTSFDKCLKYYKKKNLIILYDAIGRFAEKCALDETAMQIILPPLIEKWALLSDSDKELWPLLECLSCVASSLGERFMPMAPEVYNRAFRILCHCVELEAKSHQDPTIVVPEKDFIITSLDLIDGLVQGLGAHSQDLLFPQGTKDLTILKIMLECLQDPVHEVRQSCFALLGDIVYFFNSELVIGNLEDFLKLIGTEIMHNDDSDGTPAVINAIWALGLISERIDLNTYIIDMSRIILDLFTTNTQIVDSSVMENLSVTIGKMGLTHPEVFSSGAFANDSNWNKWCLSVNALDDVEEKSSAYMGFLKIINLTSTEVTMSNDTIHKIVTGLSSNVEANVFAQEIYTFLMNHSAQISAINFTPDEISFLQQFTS
Experiment: pull-down

binding result: binds
B1: scRpL4 (natural protein)
chain: not shown

binding result: binds
B2: His6-scAcl4•scRpL4 (complex)
chain 1: MSELEATIRQAKEALAENNAKKALKILKPFKSSLKKENANNVILNEVFADAYLDNGQVEKAYPILARACELDPEGQVGGPDKFFTMGQIMGGQDGVSIITRGIMNISNTGGEMLTNVQVEKIVGGLLSVIEIWMTDLCMEPNAEEQCEELIQKAMELTEGKSPETWSTLGSIKISQQKFGEAYEAFSQAWNFFELKKQEIGSGINENGDTTQKAGLQSEYVDLLQPLLSLTKMCLEVGAYEVALKVIAAVRDIDEDNIEGYYLEGFTYYLMSKLEIFKLNNPEVSLRPENIYEFNQLIQEVPLDLSHEPISQLIYDSRLALSFALQAGVNADSKDEIVQELLGGANALLQEIGGPLDPSELTQIKKGDLVNENEDLEELDIEEEYSD
chain 2: not shown
